Measured values: patent US8268585B2

What follows are molecules tested against Dyed casein.

Row | activity toward dyed casein, 50° C., arbitrary units/mg (arbitrary units/mg) | Molecule
1 | 0 | 25 kD endoglucanase (pI 4.1), C1-EG5, Family 45, Chrysosporium lucknowense (enzyme) QLSGSGQTTRYWDCCKPSCAWPGKGPSSPVQACDKNDNPLNDGGSTRSGCDAGGSAYMCSSQSPWAVSDELSYGWAAVKLAGSSESQWCCACYELTFTSGPVAGKKMIVQATNTGGDLGDNHFDLAIPGGGVGIFNACTDQYGAPPNGWGDRYGGIHSKEECESFPEALKPGCNWRFDWFQNADNPSVTFQEVACPSELTSKSGCSR
2 | 0 | 43 kD endoglucanase (pI 4.2), C1-EG6, Family 6, Chrysosporium lucknowense (enzyme) QASAGCASAVTLDASTNVFQQYTLHPNNFYRAEVEAAAEAISDSALAEKARKVADVGTFLWLDTIENIGRLEPALEDVPCENIVGLVIYDLPGRDCAAKASNGELKVGELDRYKTEYIDKIAEILKAHSNTAFALVIEPDSLPNLVTNSDLQTCQQSASGYREGVAYALKQLNLPNVVMYIDAGHGGWLGWDANLKPGAQELASVYKSAGSPSQVRGISTNVAGWNAWDQEPGEFSDASDAQYNKCQNEKIYINTFGAELKSAGMPNHAIIDTGRNGVTGLRDEWGDWCNVNGAGFGVRPTANTGDELADAFVWVKPGGESDGTSDSSAARYDSFCGKPDAFKPSPEAGTWNQAYFEMLLKNANPSF

Row | Molecule | activity toward dyed casein, 50° C., arbitrary units/mg (arbitrary units/mg)
3 | 55 kD cellobiohydrolase (pI 4.4), CBH1, Chrysosporium lucknowense (enzyme) | 0
